# Laboratory results reported in paper PMC4790447.
# Biological target: RLC-depleted porcine cardiac β-myosin (porcine) (UniProt P79293)
# Assay: co-sedimentation
row,Binder,percent reconstitution (densitometry) [%]
1,"R58Q human ventricular regulatory light chain, dephosphorylated (mock phosphorylation reaction) (natural protein) MAPKKAKKRAGGANSNVFSMFEQTQIQEFKEAFTIMDQNRDGFIDKNDLRDTFAALGQVNVKNEEIDEMIKEAPGPINFTVFLTMFGEKLKGADPEETILNAFKVFDPEGKGVLKADYVREMLTTQAERFSKEEVDQMFAAFPPDVTGNLDYKNLVHIITHGEEKD",97.8
2,"N47K human ventricular regulatory light chain, dephosphorylated (mock phosphorylation reaction) (natural protein) MAPKKAKKRAGGANSNVFSMFEQTQIQEFKEAFTIMDQNRDGFIDKKDLRDTFAALGRVNVKNEEIDEMIKEAPGPINFTVFLTMFGEKLKGADPEETILNAFKVFDPEGKGVLKADYVREMLTTQAERFSKEEVDQMFAAFPPDVTGNLDYKNLVHIITHGEEKD",106
3,"N47K human ventricular regulatory light chain, phosphorylated by MLCK (natural protein, phosphoserine at 15 (98.4 ± 1.6% phosphorylated)) MAPKKAKKRAGGANSNVFSMFEQTQIQEFKEAFTIMDQNRDGFIDKKDLRDTFAALGRVNVKNEEIDEMIKEAPGPINFTVFLTMFGEKLKGADPEETILNAFKVFDPEGKGVLKADYVREMLTTQAERFSKEEVDQMFAAFPPDVTGNLDYKNLVHIITHGEEKD",96.2

# Further lines, results first:
row,percent reconstitution (densitometry) [%],Binder
1,108,"wild-type human ventricular regulatory light chain, dephosphorylated (mock phosphorylation reaction) (natural protein) MAPKKAKKRAGGANSNVFSMFEQTQIQEFKEAFTIMDQNRDGFIDKNDLRDTFAALGRVNVKNEEIDEMIKEAPGPINFTVFLTMFGEKLKGADPEETILNAFKVFDPEGKGVLKADYVREMLTTQAERFSKEEVDQMFAAFPPDVTGNLDYKNLVHIITHGEEKD"
2,109,"wild-type human ventricular regulatory light chain, phosphorylated by MLCK (natural protein, phosphoserine at 15 (95.7 ± 3.6% phosphorylated)) MAPKKAKKRAGGANSNVFSMFEQTQIQEFKEAFTIMDQNRDGFIDKNDLRDTFAALGRVNVKNEEIDEMIKEAPGPINFTVFLTMFGEKLKGADPEETILNAFKVFDPEGKGVLKADYVREMLTTQAERFSKEEVDQMFAAFPPDVTGNLDYKNLVHIITHGEEKD"
3,107,"R58Q human ventricular regulatory light chain, phosphorylated by MLCK (natural protein, phosphoserine at 15 (87.4 ± 0.8% phosphorylated; full phosphorylation never accomplished)) MAPKKAKKRAGGANSNVFSMFEQTQIQEFKEAFTIMDQNRDGFIDKNDLRDTFAALGQVNVKNEEIDEMIKEAPGPINFTVFLTMFGEKLKGADPEETILNAFKVFDPEGKGVLKADYVREMLTTQAERFSKEEVDQMFAAFPPDVTGNLDYKNLVHIITHGEEKD"
